# Test results from publication PMC10638775.
# Molecular target: FGFR1 on NIH3T3 cells (mouse (NIH3T3 fibroblasts)) (UniProt P16092)
# Assay: flow cytometry
# Conditions: SPR: Biacore T200, CM5 amine coupling, HBS running buffer (pH, salt, temperature not stated), flow cytometry: PBS, 1% BSA, 0.1% sodium azide, room temperature
# Chain of FGFR1 on NIH3T3 cells (mouse (NIH3T3 fibroblasts)) (P16092 22-822): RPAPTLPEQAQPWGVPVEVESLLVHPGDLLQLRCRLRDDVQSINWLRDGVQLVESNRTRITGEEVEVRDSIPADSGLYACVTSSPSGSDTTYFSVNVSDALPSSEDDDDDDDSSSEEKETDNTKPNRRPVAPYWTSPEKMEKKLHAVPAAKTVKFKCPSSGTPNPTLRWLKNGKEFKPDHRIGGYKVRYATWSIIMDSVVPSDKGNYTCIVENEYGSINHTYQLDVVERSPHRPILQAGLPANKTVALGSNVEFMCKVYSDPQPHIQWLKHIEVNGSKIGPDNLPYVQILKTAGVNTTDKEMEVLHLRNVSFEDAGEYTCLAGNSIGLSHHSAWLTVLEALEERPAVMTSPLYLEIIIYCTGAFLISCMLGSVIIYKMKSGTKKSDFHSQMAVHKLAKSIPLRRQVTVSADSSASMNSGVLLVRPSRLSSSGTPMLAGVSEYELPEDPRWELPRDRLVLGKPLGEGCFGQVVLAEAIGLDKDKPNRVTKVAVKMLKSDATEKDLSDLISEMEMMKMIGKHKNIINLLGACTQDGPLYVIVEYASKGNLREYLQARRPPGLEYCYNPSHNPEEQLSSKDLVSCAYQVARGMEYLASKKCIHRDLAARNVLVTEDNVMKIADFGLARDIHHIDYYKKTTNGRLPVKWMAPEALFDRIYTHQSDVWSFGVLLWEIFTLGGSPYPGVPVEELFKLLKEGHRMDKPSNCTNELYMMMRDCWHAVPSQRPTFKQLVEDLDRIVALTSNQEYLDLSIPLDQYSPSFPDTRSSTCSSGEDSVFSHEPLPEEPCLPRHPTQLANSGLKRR
sequence,measurement,value
GCCGCGTCTTTATGGCTGGGGATGGTGTGGGTTGCGGC [FAM-FGFR-binder],Kd,39 nM
